Reference: patent US20230038638A1, “COMPLEMENT FACTOR I-RELATED COMPOSITIONS AND METHODS” (published 2023)

T1: human C4b (human) (UniProt P0C0L4)
T1 sequence: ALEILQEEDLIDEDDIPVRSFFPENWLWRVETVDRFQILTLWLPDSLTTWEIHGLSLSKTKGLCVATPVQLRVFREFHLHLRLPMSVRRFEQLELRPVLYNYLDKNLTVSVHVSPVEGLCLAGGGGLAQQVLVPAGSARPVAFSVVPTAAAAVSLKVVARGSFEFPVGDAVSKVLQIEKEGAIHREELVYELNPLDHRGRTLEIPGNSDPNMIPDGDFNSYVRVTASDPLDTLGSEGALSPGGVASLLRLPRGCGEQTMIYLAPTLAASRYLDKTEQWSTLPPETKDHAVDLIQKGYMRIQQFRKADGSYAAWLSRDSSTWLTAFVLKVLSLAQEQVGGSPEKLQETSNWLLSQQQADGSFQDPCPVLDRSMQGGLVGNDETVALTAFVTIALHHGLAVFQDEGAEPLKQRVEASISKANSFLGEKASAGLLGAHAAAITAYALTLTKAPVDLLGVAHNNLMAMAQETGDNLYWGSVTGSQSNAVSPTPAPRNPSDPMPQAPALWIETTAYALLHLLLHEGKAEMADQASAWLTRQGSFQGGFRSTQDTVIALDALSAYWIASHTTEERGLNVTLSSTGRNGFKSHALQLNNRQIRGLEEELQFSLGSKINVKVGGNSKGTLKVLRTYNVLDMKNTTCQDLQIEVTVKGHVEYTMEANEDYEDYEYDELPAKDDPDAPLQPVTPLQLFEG

T2: human C4b (human) (UniProt P0C0L5)
T2 sequence: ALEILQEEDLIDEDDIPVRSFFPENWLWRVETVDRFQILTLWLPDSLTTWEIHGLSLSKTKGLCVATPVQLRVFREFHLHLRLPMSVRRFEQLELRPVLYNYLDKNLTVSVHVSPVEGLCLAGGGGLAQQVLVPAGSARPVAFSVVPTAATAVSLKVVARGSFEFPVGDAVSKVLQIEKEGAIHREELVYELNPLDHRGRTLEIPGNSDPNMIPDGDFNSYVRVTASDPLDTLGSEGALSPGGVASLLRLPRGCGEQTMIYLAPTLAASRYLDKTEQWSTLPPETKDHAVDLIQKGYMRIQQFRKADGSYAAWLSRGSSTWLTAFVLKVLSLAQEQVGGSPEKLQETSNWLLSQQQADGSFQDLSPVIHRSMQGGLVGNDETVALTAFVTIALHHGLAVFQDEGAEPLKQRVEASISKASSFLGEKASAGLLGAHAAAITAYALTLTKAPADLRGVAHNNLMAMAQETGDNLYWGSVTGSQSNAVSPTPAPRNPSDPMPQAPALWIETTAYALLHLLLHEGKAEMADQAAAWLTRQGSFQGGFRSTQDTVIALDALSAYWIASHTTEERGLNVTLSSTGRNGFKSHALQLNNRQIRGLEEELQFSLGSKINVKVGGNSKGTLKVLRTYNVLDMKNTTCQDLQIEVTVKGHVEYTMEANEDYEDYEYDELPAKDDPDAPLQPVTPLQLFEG


Columns and labels:
human C4b (human) [1] = target: T1, human C4b (human)
[2] = target: soluble human C3b (human) (UniProt P01024)
human C4b (human) [3] = target: T1, human C4b (human); remark: listed apart in the source
[4] = target: soluble human C3b (human) (UniProt P01024); remark: listed apart in the source
human C4b (human) [5] = target: T2, human C4b (human)

C4c EC50 (nM) (human C4b (human) [1]) | iC3b EC50 [2] | C4b Screen Ref Fold (fold of reference) (human C4b (human) [3]) | iC3b Screen Ref Fold (fold of reference) [4] | C4b Screen Ref Fold (fold of CFI-HSA wild type) (human C4b (human) [3]) | iC3b Screen Ref Fold (fold of CFI-HSA wild type) [4] | C4c EC50 (human C4b (human) [1]) | C4b Screen Ref Fold (fold of CFI-HSA wild type) (human C4b (human) [5]) | iC3b Screen Ref Fold (fold vs CFI-HSA wild type) [4] | C4b Screen Ref Fold (fold vs CFI-HSA wild type) (human C4b (human) [5]) | Molecule
> 1000 nM | 43.5 nM | 0.1 | 0.73 | – | – | – | – | – | – | CFI-HSA variant K504T (enzyme)
63.6 nM | 7 nM | – | – | 2.71 | 2.53 | – | – | – | – | CFI-HSA variant D420G (enzyme)
21.4 nM | 5.5 nM | – | – | 4.65 | 2.22 | – | – | – | – | CFI-HSA variant E457G; E461Q; R462K; F464Y; E530F; N531G; P558S (enzyme)
> 1000 nM | 6.2 nM | – | – | 0.02 | 2.97 | – | – | – | – | CFI-HSA variant K504R; E530F; D425R; P558G (enzyme)
176 nM | 42.6 nM | 1.96 | 0.36 | – | – | – | – | – | – | CFI-HSA variant G406A (enzyme)
196 nM | 51.6 nM | 2.86 | 0.18 | – | – | – | – | – | – | CFI-HSA variant K504Y (enzyme)
– | 31.9 nM | 0.92 | 0.82 | – | – | 386 nM | – | – | – | CFI-HSA variant G406L (enzyme)
47.8 nM | 12 nM | – | – | 3.37 | 0.77 | – | – | – | – | CFI-HSA variant T377G; E416A; K504H (enzyme)
> 1000 nM | 104 nM | 0.07 | 0.21 | – | – | – | – | – | – | CFI-HSA variant K504V (enzyme)
7.2 nM | 4.3 nM | – | – | 4.21 | 1.89 | – | – | – | – | CFI-HSA variant P558S; E457G; E461Q; N531G (enzyme)
920 nM | 60.5 nM | 0.19 | 0.56 | – | – | – | – | – | – | CFI-HSA variant R456N (enzyme)
7.1 nM | 5 nM | – | – | 3.97 | 1.87 | – | – | – | – | CFI-HSA variant P558G; E457G; E461Q; N531G (enzyme)
> 1000 nM | 43.8 nM | 0.14 | 0.52 | – | – | – | – | – | – | CFI-HSA variant K504M (enzyme)
353 nM | 23.9 nM | 2.12 | 0.94 | – | – | – | – | – | – | CFI-HSA variant A405S (enzyme)
> 1000 nM | 176 nM | 0.05 | 0.1 | – | – | – | – | – | – | CFI-HSA variant K504I (enzyme)
8.2 nM | 3 nM | – | – | 4.18 | 2.98 | – | – | – | – | CFI-HSA variant K504R; E457G; E461Q; N531G (enzyme)
> 1000 nM | 90.6 nM | 0.12 | 0.03 | – | – | – | – | – | – | CFI-HSA variant E457Y (enzyme)
– | 37.2 nM | 0.72 | 0.73 | – | – | > 1000 nM | – | – | – | CFI-HSA variant G406F (enzyme)

C4c EC50 (nM) (human C4b (human) [1]) | iC3b EC50 [2] | C4b Screen Ref Fold (fold of reference) (human C4b (human) [3]) | iC3b Screen Ref Fold (fold of reference) [4] | C4b Screen Ref Fold (fold of CFI-HSA wild type) (human C4b (human) [3]) | iC3b Screen Ref Fold (fold of CFI-HSA wild type) [4] | C4c EC50 (human C4b (human) [1]) | C4b Screen Ref Fold (fold of CFI-HSA wild type) (human C4b (human) [5]) | iC3b Screen Ref Fold (fold vs CFI-HSA wild type) [4] | C4b Screen Ref Fold (fold vs CFI-HSA wild type) (human C4b (human) [5]) | Molecule
8.4 nM | 4.2 nM | – | – | 4.19 | 1.59 | – | – | – | – | CFI-HSA variant K504R; D425R; E457G; E461Q; N531G (enzyme)
– | 13.5 nM | 2.18 | 0.7 | – | – | > 1000 nM | – | – | – | CFI-HSA variant D425G (enzyme)
> 1000 nM | 151 nM | 0.33 | 0.12 | – | – | – | – | – | – | CFI-HSA variant G406D (enzyme)
223 nM | 13 nM | 3.03 | -0.01 | – | – | – | – | – | – | CFI-HSA variant N531K (enzyme)
– | 14.7 nM | 0.76 | 0.8 | – | – | > 1000 nM | – | – | – | CFI-HSA variant E530R (enzyme)
6.3 nM | 6.6 nM | – | – | 3.44 | 1.06 | – | – | – | – | CFI-HSA variant T377G; Y408L; E457G; E461Q; R462K; N531G (enzyme)
21 nM | 5.2 nM | – | – | 4.04 | 1.25 | – | – | – | – | CFI-HSA variant E457G; E461Q; E530Y; N531G; P558S (enzyme)
100 nM | 9.8 nM | 3.83 | 1.44 | – | – | – | – | – | – | CFI-HSA variant E461I (enzyme)
> 1000 nM | 77.5 nM | 0.29 | 0.13 | – | – | – | – | – | – | CFI-HSA variant K504F (enzyme)
– | 76 nM | – | – | – | 0.15 | > 1000 nM | 1.06 | – | – | CFI-HSA variant G556A (enzyme)
645 nM | 29.1 nM | – | – | – | – | – | – | 1.08 | 0.16 | CFI-HSA variant F537R (enzyme)
11.9 nM | 6.9 nM | – | – | – | 1.11 | – | 4.82 | – | – | CFI-HSA variant N531G; E416A (enzyme)
615 nM | 12.7 nM | – | – | – | – | – | – | 1.31 | 0.85 | CFI-HSA variant Q467K; F537K (enzyme)
– | 5.2 nM | – | – | – | 1.51 | 32.6 nM | 5.49 | – | – | CFI-HSA variant E457G; N422K (enzyme)
7.5 nM | 5.2 nM | – | – | – | 2.21 | – | 4.38 | – | – | CFI-HSA variant E457G; N531G; E461Q; R462K; F464Y; E416A (enzyme)
472 nM | 12.4 nM | – | – | – | – | – | – | 0.99 | 0.89 | CFI-HSA variant P558L (enzyme)
26.1 nM | 4.9 nM | – | – | – | – | – | – | 1.4 | 4.93 | CFI-HSA variant D425R; Y408L; N531G; E457G; E461Q; R462K; F464Y (enzyme)
54 nM | > 500 nM | – | – | – | – | – | – | 0.04 | 6.24 | WT mouse CFI (enzyme) RSPSASDLPQEELVDQKCLLQKYTHRSCNKVFCQPWQRCIEGTCICKLPYQCPRAGTPVCAMNGRSYPTYCHQKSFECLHPEIKFSHNGTCAAEGKFNVSLIYGRTKTEGLVQVKLVDQDERMFICKNSWSMAEANVACVDLGFPLGVRDIQGSFNISGNLHINDTECLHVHCRGVETSLAECAFTKRRTELSNGLAGVVCYKQDADFPTSLSFQCVNGKHIPQEKACNGVNDCGDQSDELCCKGCRGNASLCKSGVCIPDQYKCNGEVDCITGEDESRCEEDRQQNIPKGLARSAQGEAEIETEETEMLTPGMDNERKRIKSLLPKLSCGVKRNTHTRRKRVIGGKPANVGDYPWQVAIKDGQRITCGGIYIGGCWILTAAHCVRPSRAHSYQVWTALLDWLKPNSQLGIQTVKRVIVHEKYNGATFQNDIALIEMKMHTGKKECELPNSVPACVPWSPYLFQPNDRCIISGWGRGKDNQKVYSLRWGEVDLIGNCSQFYPDRYYEKEMQCAGTRDGSIDACKGDSGGPLVCEDINNVTYVWGIVSWGENCGKPEFPGVYTRVANYFDWISYHVGRSLVSQHNV
